Reference: patent publication US20030079244A1, “Agent for treatment of exocrine gland disorders and transgenic mouse useful for screening the same” (R-TECH UENO, LTD., priority 1997, published 2003)

Columns and labels:
[1] = tested on: normal mouse spleen cells; assay: Effect of IL-10 on the expression of Fas ligand (flow-cytometry); type: cell-based; conditions: treated in vitro, analyzed 48 hours after the treatment; versus non-stimulated cells
Experimental: In order to study the role of IL-10 in Fas-ligand expression, normal mouse spleen cells were isolated, treated with mouse recombinant IL-10 in vitro and then analyzed with flow-cytometry 48 hours after the treatment.

[2] = tested on: salivary gland epithelial cells; assay: Cytotoxicity test against salivary gland epithelial cells (51Cr release); type: cell-based; conditions: CD4-positive T-cell effector cells treated with mouse IL-10 (0.1 mg/ml) with or without anti-FASL antibody (10 μg/ml); effector:target 20-fold; 4 hours at 37° C.; 51Cr in supernatant
Description: Cytotoxicity test against salivary gland epithelial cells
Spleen isolated from a B6 mouse was chopped into small pieces, the cells were collected with a syringe having 22-gage injection needle and the collected cells were passed through a meshed screen to obtain cell suspension. CD4-positive T-cells were isolated from the cell suspension by means of dynabeads to provide effector cells.
Salivary gland of the same mouse as above was immersed in DMEM medium containing 10% fetal calf serum supplemented with collagenase (750 units/ml), EDTA (0.76 mg/ml) and hyaluronidase type IV (500 units/ml) to isolate the salivary gland tissue, and the obtained cells were incubated in DMEM medium containing 10% fetal calf serum for 10 to 14 days in a CO2 incubator. The cultured cells were then analyzed with flow-cytometry and were confirmed that 85-95% of them were epithelial cells, and were used as target cells.
The target cells were labeled with 51Cr. Half of the effector cells were treated with mouse IL-10 (0.1 mg/ml) alone, whereas the other half were treated with mice IL-10 (0.1 mg/ml) and anti mice Fas ligand (FASL) neutralizing antibody (10 μg/ml) . […]
The amount of 51Cr in the supernatant of the respective culture was measured and the cytotoxic ratio was calculated by subtracting the 51Cr amount of the target cells cultured without effector cells.

B1: IL-10: mouse interleukin-10 used to treat effector cells and spleen cells (protein, UniProt P18893 19-178, looked up)
Interleukin-10: SRGQYSREDNNCTHFPVGQSHMLLELRTAFSQVKTFFQTKDQLDNILLTDSLMQDFKGYLGCQALSEMIQFYLVEVMPQAEKHGPEIKEHLNSLGEKLKTLRMRLRRCHRFLPCENKSKAVEQVKSDFNKLQDQGVYKAMNEFDIFINCIEAYMMIKMKS
Question: For B1, which Fas ligand expression [1] is on record?
Answer: Its Fas ligand expression is “Significantly higher amount of Fas ligand expression”.

Question: What about the cytotoxic ratio [2] of the same molecule?
Answer: The cytotoxic ratio was 29.5%.
